Reference: patent US9260501B2, “Peptide extended insulins” (priority 2006, dated 2016)

biological target: purified recombinant human insulin receptor - (minus) exon 11 (human) (UniProt P06213); experiment: SPA antibody-capture competition assay, displacement of A14 Tyr[125I]-human insulin from recombinant human insulin receptor minus exon 11; affinity relative to human insulin; conditions: not given

Substance | Relative insulin receptor binding [%]
A14E, A21Q, A22-A45G, B25H, desB30 Human Insulin (from UniProt P01308) (ligand) | 12
A14E, A21Q, A22-A45G, B(-6)-(-1)G, B25H, desB30 Human Insulin (from UniProt P01308) (ligand) | 10
A14E, A21Q, A22-A45G, B(-12)-(-1)G, B25H, desB30 Human Insulin (from UniProt P01308) (ligand) | 11
A14E, A21Q, A22-A45G, B(-18)-(-1)G, B25H, desB30 Human Insulin (from UniProt P01308) (ligand) | 7.2
A14E, A21Q, A22-A57G, B25H, desB30 Human Insulin (from UniProt P01308) (ligand) | 14
A14E, A21Q, A22-A62G, B25H, desB30 Human Insulin (from UniProt P01308) (ligand) | 2
A14E, A21Q, A22G-A51G, B25H, desB30 Human Insulin (from UniProt P01308) (ligand) | 12
A21Q, A22-A45G, B(-6)-(-1G), desB30 Human Insulin (from UniProt P01308) (ligand) | 14
A21Q, A22-A45G, B(-12)-(-1)G, desB30 Human Insulin (from UniProt P01308) (ligand) | 16
A21Q, A22-A45G, B(-18)-(-1)G, desB30 Human Insulin (from UniProt P01308) (ligand) | 13
A21Q, A22-A45G, desB30 Human Insulin (from UniProt P01308) (ligand) | 14
A21Q, A22-A51G, desB30 Human Insulin (from UniProt P01308) (ligand) | 17
A21Q, A22-A57G, desB30 Human Insulin (from UniProt P01308) (ligand) | 20
A22-27G desB30 Human Insulin (from UniProt P01308) (ligand) | 44
A22-33G desB30 Human Insulin (from UniProt P01308) (ligand) | 41
A22-39G desB30 Human Insulin (from UniProt P01308) (ligand) | 30
A22-45G desB30 Human Insulin (from UniProt P01308) (ligand) | 25

biological target: human insulin receptor (Homo sapiens, UniProt P06213); experiment: Insulin receptor binding, SPA (Scintillation Proximity Assay) microtiterplate antibody capture assay; conditions: binding affinity relative to that of human insulin; purified recombinant human insulin receptor minus exon 11; A14 Tyr[125I]-human insulin tracer
Sequence (P06213 28-746 isoform P06213-2 limits assumed): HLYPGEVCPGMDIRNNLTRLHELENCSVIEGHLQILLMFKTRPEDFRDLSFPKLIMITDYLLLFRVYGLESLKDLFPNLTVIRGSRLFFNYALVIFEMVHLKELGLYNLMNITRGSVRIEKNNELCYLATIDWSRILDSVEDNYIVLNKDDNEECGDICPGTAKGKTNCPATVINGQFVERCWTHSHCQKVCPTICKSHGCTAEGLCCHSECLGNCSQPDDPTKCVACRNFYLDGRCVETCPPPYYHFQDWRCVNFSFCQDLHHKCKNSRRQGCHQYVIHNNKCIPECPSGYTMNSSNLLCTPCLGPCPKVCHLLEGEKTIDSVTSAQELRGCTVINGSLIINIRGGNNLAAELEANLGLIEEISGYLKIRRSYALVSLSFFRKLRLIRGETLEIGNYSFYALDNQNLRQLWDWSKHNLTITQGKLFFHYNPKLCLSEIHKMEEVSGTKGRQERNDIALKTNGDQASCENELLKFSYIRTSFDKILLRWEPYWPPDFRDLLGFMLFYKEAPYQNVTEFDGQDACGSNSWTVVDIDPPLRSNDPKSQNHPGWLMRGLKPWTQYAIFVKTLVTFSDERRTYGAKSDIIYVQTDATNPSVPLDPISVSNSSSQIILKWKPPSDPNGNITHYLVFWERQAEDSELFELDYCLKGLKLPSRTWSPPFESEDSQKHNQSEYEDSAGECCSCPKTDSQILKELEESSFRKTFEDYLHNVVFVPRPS
Sequence (P06213 763-1382 partner limits assumed): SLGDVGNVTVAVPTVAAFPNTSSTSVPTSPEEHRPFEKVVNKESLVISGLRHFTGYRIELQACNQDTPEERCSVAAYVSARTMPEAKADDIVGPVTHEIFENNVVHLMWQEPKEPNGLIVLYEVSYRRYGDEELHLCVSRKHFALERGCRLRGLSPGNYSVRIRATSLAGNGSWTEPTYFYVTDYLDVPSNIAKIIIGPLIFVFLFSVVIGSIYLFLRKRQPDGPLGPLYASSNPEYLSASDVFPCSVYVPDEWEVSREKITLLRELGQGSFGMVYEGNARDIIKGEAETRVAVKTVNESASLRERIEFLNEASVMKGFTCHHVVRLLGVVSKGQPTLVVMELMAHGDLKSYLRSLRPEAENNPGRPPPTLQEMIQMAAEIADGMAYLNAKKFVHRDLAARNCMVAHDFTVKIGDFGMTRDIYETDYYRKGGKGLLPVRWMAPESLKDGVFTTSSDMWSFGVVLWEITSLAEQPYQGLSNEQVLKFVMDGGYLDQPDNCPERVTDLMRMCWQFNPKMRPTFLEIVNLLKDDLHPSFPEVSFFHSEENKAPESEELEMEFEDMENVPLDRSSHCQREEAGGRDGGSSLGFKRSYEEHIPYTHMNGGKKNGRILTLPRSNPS
Protocol: These extended insulins were tested for biological insulin activity as measured by binding affinity to the human insulin receptor relative to that of human insulin as described below.
Insulin Receptor Binding of the Insulins of the Invention
The affinity of the insulins of the invention for the human insulin receptor can be determined by a SPA assay (Scintillation Proximity Assay) microtiterplate antibody capture assay. […] Reagent mix for a single Packard Optiplate (Packard No. 6005190) is composed of 2.4 μl of a 1:5000 diluted purified recombinant human insulin receptor − (minus) exon 11, an amount of a stock solution of A14 Tyr[125I]-human insulin corresponding to 5000 cpm per 100 μl of reagent mix, 12 μl of a 1:1000 dilution of F12 antibody, 3 ml of SPA-beads and binding buffer to a total of 12 ml. A total of 100 μl is then added and a dilution series is made from appropriate samples. To the dilution series is then added 100 μl of reagent mix and the samples are incubated for 16 hours while gently shaken. The phases are then separated by centrifugation for 1 min and the plates counted in a Top-counter. The binding data are fitted using the nonlinear regression algorithm in the GraphPad Prism 2.01 (GraphPad Software, San Diego, Calif.).

Substance | Relative insulin receptor binding [%]
A14E, A21Q, A22-A62G, B25H, desB30 Human Insulin [Example 20] | 2
